According to the DeepSol protein solubility set:

Assay: soluble on expression in E. coli; label from the status in PepcDB or PDB records

Row | Sequence | soluble on expression in E. coli
1 | QVRQSPQSLTVWEGETTILNCSYENSAFDYFPWYQQFPGEGPALLIAIRSVSDKKEDGRFTIFFNKREKKLSLHITDSQPGDSATYFCAATGANTGKLTFGHGTILRVHPNIQNPDPAVYQLRDSKSSDKSVCLFTDFDSQTNVSQSKDSDVYITDATVLDMRSMDFKSNSAVAWSNKSDFACANAFNNSIIPEDTFFPS | soluble
2 | QVVMPRPPALCQGCGHRDVYDALNKVAAEYPDARIFGDIGCYTLGALPPFRAIDSCVDMGASITMAKGASDAGVFPAIAVIGDSTFTHSGMTGLLDAVNDRANITVVISDNLTTAMTGGQDSAGTNKFEAICLGLGVEPEHVRVVVPLPKNMEEITRTIREEIEYKGVSVIIPRRECIQTLNRKLRQKKADKA | not soluble
3 | RAAIHDIATPVAIVDEQGRVVNLNAAAEQMLAVDKHEALTEPLNDFLGGDDIATDGGSSRVSIEADGRHREYKVQQTALRDETGTQLGYTVVFQDIT | soluble
4 | RADEQAFLVALYKYMKERKTPIERIPYLGFKQINLWTMFQAAQKLGGYETITARRQWKHIYDELGGNPGSTSAATCTRRHYERLILPYERFIKGEEDKPLPPIKPRK | soluble
5 | RAKLMEERETSLKDSVEVAFDAVRLIANNPNLSEAEAKQQVKAVLTNIRYGSDGYFFAYDAQGTNLVHPIQPELVGQNLWQLQDERGDFLIQ | not soluble
6 | RAVDNAEPAALETSTRTIPTNGRTMTPVQATYWVGRQPDYALGGIATRFYMEHDITIDGPMDEWIDALRRSWNTVVQRHGMLRATVDRDGKISIADTVTEHPLPVHNADHAAEVRERLAHRTADLGTWPVHDIELTTITATTVRIHCGFDVILIDYPSIMRVLNDWGRALAGYDLGTEDTSFSDLIAQGIAEPCPSDEAYWRERAPRLLPGPLDLAEMTYDAATTPEFHRHTRTIAAQQWKQFVDNAHAHGTNASSALLAVAAHSLRHVGPRRSFTLGATFFSPDVLEHGPVGDFTRTGVVELPDTADTFAQQASAAQHELWEAFDHASVTSADIMRWRNSDTTGQALPDYPVVFTSALGHGDSTDWPGVMTWGVSQTPQVLMDLLHWESDGDLVLAWDCVDAALPENFADNAIDIAYAVIQQLTNPAVWTDPTVVADPWLRMPGPMERIGESELIDAPLRA | not soluble
7 | REAFVSIQTSTIPKTAYAAVNFVETQGEDESYTDSLSTDNKRDIYADFAVIEIPLFLTNHRDYQVFNEFIKPAIETYKQLGNSSFEKKQLDQHKNDNFYMLGYPLVESSIDALILNQRRQYNNSYTEKYTPQTLTKDQRTIDLSREVPTLIQNKTENSTGSQLLVNQSLSSTSEGIIE | soluble
8 | REIADNTYIVLGTMTLNDFNEYFETDLESDNVDTIAGFYLTGVGTIPSQEEKEHFEVESNGKHLELINDKVKDGRVTKLKILVSE | soluble
9 | RENFPGVSWDSLPDELLLGIFSCLCLPELLKVSGVCKRWYRLASDESLWQTLDLTGKNLHPDVTGRLLSQGVIAFRCPRSFMDQPLAEHFSPFRVQHMDLSNSVIEVSTLHGILSQCSKLQNLSLEGLRLSDPIVNTLAKNSNLVRLNLSGCSGFSEFALQTLLSSCSRLDELNLSWCFDFTEKHVQVAVAHVSETITQLNLSGYRKNLQKSDLSTLVRRCPNLVHLDLSDSVMLKNDCFQEFFQLNYLQHLSLSRCYDIIPETLLELGEIPTLKTLQVFGIVPDGTLQLLKEALPHLQINCSHFTTIARPTIGNKKNQEIWGIKCRLTLQKPSCL | soluble
10 | RGIAVYVEHHNGNIHPVTYELIGKAREMASKIKQPVYCVFVGKDIKDKCSNLISYGVDEVFVYDEDEFKDFRIEPYSKAIENFIDKIKPTIVLVGGTTLGRSLAPRLAARFRTGLTADCTILDIQSNTDLDQIRPAFGGNIMAHINTPNNRPQFATVRYKIFSAPEKIENTTGKITLCKVEKKELKSKIKVLS | not soluble
11 | RGSLTIYIGYSPGVGKTFEMLSNAIELFQSNVDIKIGYIEPHQRDETNALAEQLPKITTNFTKHGSHHFQYLDVDRIIEESPTIVLIDELAHTNISRDRHEKRYMDIEEILNHGIDVHTTLNIQHIESLSSQIELMTGVHVKERVPDYFIMSADVLEVVDISPEQLIKRLKAGKVYKKDRLDVAFSNFFTYAHLSELRTLTLRTVADLMSDKEKVRHNHKTS | not soluble
12 | RPSSVVIGTASQGGVYYIYGGGLAQLLDRELGVSSNVEVTGGPVHNMQLVNEQEQDIGMITMGPGYEGVLGEGEWTGGETYDNVRVIFPMYTTPFHWWSLESSGVTSIEDMDGMRVGVGPSGGTSGTYLPIIHEVLGLDITPVLAGANDMVSQQLDGQLDVIGFAAGLPIPAVAEVEAQRDIHLFGIDGENRDKVLEALPYFEPYTIPADTYDQLDEDLETIAMFNFGITYSEMNADFVYELVKAYHENNDLLMTTHSSAEEAVPEAILRNEVVPLHVGAIRYYEEIGIDLPESVYPAEWENE | not soluble
13 | RRFEPLLLLPIGFGGLLSNIPEAGLAMTALDHLLHYAHTEQLTIIAEKVNSSSLDVHTIKQAIAFAPPSVQNELEVIASDLGYNAG | not soluble
14 | RRNALELEVFAGQEKSELSMIEVARAILELRGRDHEMHFSDLVNEIQNYLGTSNSDIREALPLFYTELNFDGSFISLGDNKWGLRSWYGVDEIDEEIIALEENDDDEVAPKAKKKRVNAFMDGDSDAIDYNADDPEDEDAYEADPALSYDDENPDDEKNEVEAYDAEINEIAPDDLGEDVDLNEDDDEFSDDDAET | not soluble
15 | RSRLVQFQKNTDEPMGITLKMNELNHCIVARIMHGGMIHRQGTLHVGDEIREINGISVANQTVEQLQKMLREMRGSITFKIVPSYREF | soluble
16 | RTMGFYVAKGNPKNITGWEDFRRDDLTMVNRERGCGTRILLDEHLRLLNIDGNKINGYSRESLSHLAIASIISRNGADIGIGNEKTGLQVANIDFIPIQRERYDLVIRKDDIEKPPFKAIIDILQSETFKSELMGIGGYDLTQTG | not soluble
17 | RTVRQTPKQSERYVVVLSLDGFRPDYTDRARTPALDRMAQEGLSGSLQPCFPSLTFPNHYSMATGLYPDHHGIVANEFVDSLLGIFRISDRKAVETPGFWGGEPVWNTAARQGIRTGVYFWVGSETAVNGNRPWRWKKFSSTVPFRDRADSVIAWLGLPEKERPRLLMWYIEEPDMIGHSQTPESPLTLAMVERLDSVVGYFRKRLDSLPIAAQTDFIIVSDHGMATYENEKCVNLSH | not soluble
18 | SAALRYAGLDDTDSEDELPPGWEERTTKDGWVYYANHTEEKTQWEHPKTGKRKRVAGDLPYGWEQETDENGQVFFVDHINKRTTYLDPRLAFTVDDNPTKPTTRQRYDGSTTAMEILQGRDFTGKVVVVTGANSGIGFETAKSFALHGAHVILACRNMARASEAVSRILEEWQQGAATTVYCAAVPELEGLGGMYFNNCCRCMPSPEAQSEETARTLWALSERLIQERLGSQSG | soluble
19 | SAASAALILPESPSMKKAVPLINAIDTGRFPRLLSRILQKLHLKAESSFSEEEEEKLQAAFSLEKQELHLVLETISFVLEQAVYHNVKPAALQQQLEMIHLRKDKAEAFASAWSAMGQETVEKFRQRILGPHKLETVGWQLNLQMAHSAQAKLQSPQAVLQLGVSKEDAKNVEKVLVEFNHKELFDFYNKLETIQAQLDSLT | soluble
20 | SADDKDVLRDVWFGRIPACFTLSPDETTEREAEPYYLLLPRVSYLTLVTDKVKKHFLKVMKAEDVEEMWFEHEGTPLKWHYPIGVLFDLHASNSALPWNVTVHFKNFPEQDLLHCSTNSVIEAHFMSCIKEADALKHKGQVINDMQKKDHKQLWMGLQNDKFDQFWAMNRKLMEYPTEEGGFRYIPFRIYQTMSDRPFIQTLFRPVSSEGQALTLGDLLKELFPAAIEDEPKKFQVMIHGIEPLLETPIQWLSEHLSHPDNFLHISIIPAPSD | soluble
21 | SADHDLFRETVYAESLDEALERYSVDTVGDSELATLLPHIEKTFGFPTWAQINEALDTYPDREFVNTVTELLSTANPESLVAAVELMVASARSTTLREELDHEVVLGEYIRSRPNFAEGVRAVLVDKDRNADFTPATTGEVDVTPMRKLLKN | not soluble
22 | SADNGGYVPAVVIGTGYGAAVSALRLGEAGVQTLMLEMGQLWNQPGPDGNIFCGMLNPDKRSSWFKNRTEAPLGSFLWLDVVNRNIDPYAGVLDRVNYDQMSVYVGRGVGGGSLVNGGMAVEPKRSYFEEILPRVDSSEMYDRYFPRANSMLRVNHIDTKWFEDTEWYKFARVSREQAGKAGLGTVFVPNVYDFGYMQREAAGEVPKSALATEVIYGNNHGKQSLDKTYLAAALGTGKVTIQTLHQVKTIRQTKDGGYALTVEQKDTDGKLLATKEISCRYLFLGAGSLGSTELLVRARDTGTLPNLNSEVGAGWGPNGNIMTARANHMWNPTGAHQSSIPALGIDAWDNSDSSVFAQIAPMPAGLETWVSLYLAITKNPQRGTFVYDAATDRAKLNWTRDQNAPAVNAAKALFDRINKANGTIYRYDLFGTQLKAFADDFCYQPLGGCVLGKATDDYGRVAGYKNLYVTDGSLIPGSVGVNPFVTITALAERNVERIIKQDVTAS | soluble
23 | SAKFSKQSWGLENEALIVRCPRQGKPSYTVDWYYSQTNKSIPTQERNRVFASGQLLKFLPAAVADSGIYTCIVRSPTFNRTGYANVTIYKKQSDCNVPDYLMYSTVSGSEKNSKIYCPTIDLYNWTAPLEWFKNCQALQGSRYRAHKSFLVIDNVMTEDAGDYTCKFIHNENGANYSVTATRSFTVKDEQGFSLFPVIGAPAQNEIKEVEIGKNANLTCSACFGKGTQFLAAVLWQLNGTKITDFGEPRIQQEEGQNQSFSNGLACLDMVLRIADVKEEDLLLQYDCLALNLHGLRRHTVRLSRKNPSKECF | soluble
24 | SANDKQYISYNNVHQLCQVSAERIKNFKPDLIIAIGGGGFIPARILRTFLKEPGVPTIRIFAIILSLYEDLNSVGSEVEEVGVKVSRTQWIDYEQCKLDLVGKNVLIVDEVDDTRTTLHYALSELEKDAAEQAKAKGIDTEKSPEMKTNFGIFVLHDKQKPKKADLPAEMLNDKNRYFAAKTVPDKWYAYPWESTDIVFHTRMAIEQGNDIFIPEQEHKQ | soluble
25 | SAQKVEAKGGKGGNQWDDGSDHDAVTKIQVAVGGMGIQYIQFDYVKNGQTEQTPLRGIKGSTIPTDPFVINHPEEHLVSIEIWYKPDGLIQGLRFISNKKTSRFIGYDRGTRSFLQVQDKKIIGFHGSAGDNLNSLGAYFAPLTIPLTPAKPLPALGSDDGTAWDDGAYVGVKKVYVGQAQDGISAVKFVYDKSPEEVTGEEHGKSTLLGFEEFVLDYPSEYIIAVEGTYDKIFGSDGSVITMLRFKTNKQTSPPFGLEAGTAFELKEEGHKIVGFHGRADALLHKIGVHVRPVSN | soluble
26 | SAQNVYGPGVRIGNWNEDVYLEEELMKDFLEKRDKGKLLIQRSRRLKQNLLRPMQLSVTEDGYIHYGDKVMLVNPDDPDTEADVFLRGDLSLCMTPDEIQSHLKDELEVPCGLSAVQAKTPIGRNTFIILSVHRDATGQVLRYGQDFCLGITGGFDNKMLYLSSDHRTLLKSSKRSWLQEVYLTDEVSHVNCWQAAFPDPQLRLEYEGFPVPANAKILINHCHTNRGLAAHRHLFLSTYFGKEAEVVAHTYLDSHRVEKPRNHWMLVTGNPRDASSSMLDLPKPPTEDTRAMEQAMGLDTQ | soluble
27 | SARKSNLPVLLVPFLLCQALVRCSSPLPLVVNTWPFKNATEAAWRALASGGSALDAVESGCAMCEREQCDGSVGFGGSPDELGETTLDAMIMDGTTMDVGAVGDLRRIKNAIGVARKVLEHTTHTLLVGESATTFAQSMGFINEDLSTSASQALHSDWLARNCQPNYWRNVIPDPSKYCGPYKPPGILKQDIPIHKETEDDRGHDTIGMVVIHKTGHIAAGTSTNGIKFKIHGRVGDSPIPGAGAYADDTAGAAAATGNGDILMRFLPSYQAVEYMRRGEDPTIACQKVISRIQKHFPEFFGAVICANVTGSYGAACNKLSTFTQFSFMVYNSEKNQPTEEKVDCI | soluble
